Data from the supplement of paper PMC10567573.
± gives the standard deviation.

Experiment: protein stability index of a GFP-peptide fusion (GPS, HEK-293T) (PSI 1-6); higher = more stable
Details: c terminus: a fixed tail appended
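Further: 24-mer peptide tiles fused after GFP, lentivirally expressed, FACS-sorted into six equal bins by GFP/DsRed ratio, decoded by Illumina sequencing, PSI is the read-weighted mean bin number.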

Sequence	protein stability index (treatment: DMSO)	protein stability index (treatment: MLN4924 1 uM, 8 h)
IFDDNFIEERKQGLEQFINKVAGH [SNX3]	3.03 ± 0.39	3.32 ± 0.44
SRGGPPPPPPPPHNSGPPPPPARG [WASL]	5.13 ± 0.26	5.07 ± 0.07
MEEQREALRKIIKTLAVKNEEIQS [FSD1]	3.15 ± 0.1	3.16 ± 0.27
APRLAVAVPAVTSADSQFSQTTQA [LYSMD4]	4.76 ± 0.16	4.81 ± 0.19
YGVKSPLSLIARFSPIAIDGMSGL [ELAVL3]	2.41 ± 0.091	2.35 ± 0.33
ASSGQHHDFLSDLFSDDYGGKNCK [CEBPB]	4.54 ± 0.35	4.66 ± 0.45
ITPWTPSPSEKNSSFTWSVPSSGY [SMTNL2]	2.72 ± 0.3	2.75 ± 0.34
EIMLQYCFPRLDINVSKGINHLLK [PRIM1]	2.18 ± 0.67	2.5 ± 0.47
SIKGSSGLGGGSSRTSCRLSGGLG [KRT17]	3.39 ± 0.19	3.42 ± 0.28
KRSSLPRPSSILPPRRGVSGDRDE [MAP2]	5.04 ± 0.24	5.16 ± 0.3
SDQETLRIHERLVAGSLAGAIAQS [SLC25A25]	3.87 ± 0.18	3.8 ± 0.43
LDEFARENIDSLYNVNLSKGRAAL [SCNN1D]	3.82 ± 0.17	3.85 ± 0.31
DPDVGVNSLQSYQLSPNKHFSLRV [PCDHGA10]	2.6 ± 0.25	2.51 ± 0.24
LTILAKRKSLFDDKAVEIEELTYI [STX5]	2.2 ± 0.35	2.22 ± 0.49
YDTTLALGHAAAFSDDCDLPSAQD [GLT8D2]	5.33 ± 0.2	5.31 ± 0.3
WEYSSSIQNSDNDLPVVQGSSSFS [TRIM29]	4.61 ± 0.25	4.42 ± 0.36
PDLTQAPSSLMETLEQHLNTLEGK [SNAP91]	4.77 ± 0.35	5.08 ± 0.21
LARKNREELDKYWSQQIEESTTVV [KRT18]	4.24 ± 0.13	4.12 ± 0.23
HHWDHARGNPELARLRPGLAVLGA [HAGHL]	3.1 ± 0.34	3.08 ± 0.45
LAQDWERCNTTCGRGVKKRLVLCM [ADAMTSL2]	1.56 ± 0.33	1.79 ± 0.19
KNKKKKLKKKQKRQAELLEKRLQE [SRPK2]	5.15 ± 0.42	5.06 ± 0.48
VLSSEQEFQMFPKSRLSSVSVTYC [ETS2]	2.21 ± 0.28	2.23 ± 0.3
GGLEHVPSSSSIHNGDMEKILLDA [BNIP3L]	4.85 ± 0.23	4.68 ± 0.61

Sequence	protein stability index (treatment: DMSO)	protein stability index (treatment: MLN4924 1 uM, 8 h)
NFAVQHRYLFEEDNLLRSTQKLSH [MATN2]	2.97 ± 0.24	2.85 ± 0.27
AEMFRRKPLFCGNSEADQLGKIFD [CDK4]	2.98 ± 0.17	3.06 ± 0.2
LCEKFDYLYGILEERKNEMTQVIT [TRIM55]	2.7 ± 0.15	2.88 ± 0.4
MPDEPVEAPALPAPAAPMVSKGAE [BRD3]	5.17 ± 0.37	5.37 ± 0.3
NCHIGGSFSEETEKKFEHFSGLLN [LOXL2]	3.02 ± 0.27	3.44 ± 0.32
SGSSYCSFPPSLSSSSSSSPTSGS [LURAP1L]	4.32 ± 0.13	4.42 ± 0.17
DISMEIPQEFQKTVSTMYYLWMCS [SCAMP3]	2.28 ± 0.54	2.38 ± 0.39
QTWKLFSSHMNIDITDDCICDLAR [PPEF2]	2.25 ± 0.35	2.06 ± 0.32
EMPKSSDFLIHPPERSDLTLYLIV [PCDHGC5]	2.83 ± 0.47	2.72 ± 0.3
EYFFDRNRPSFDAILYYYQSGGRL [KCNA1]	2.52 ± 0.43	2.18 ± 0.29
PRLTMHYPCLEKPRIWSLAHTATA [IRX6]	2.31 ± 0.18	2.5 ± 0.11
REVFNEIYPVWTYSYLVLLFPVFL [SLC19A2]	2.71 ± 0.61	2.62 ± 0.21
AVAAATAAVEGSGGSGGGSHHHHQ [KCNA4]	5.04 ± 0.33	5.07 ± 0.35
KPLYVAFSFMYILVGLTVIGAFLN [KCNK9]	2.79 ± 0.67	2.97 ± 0.62
CCCCYQSKSLMTSVPMNGTSIQWK [EDNRA]	2.2 ± 0.26	2.39 ± 0.31
TLTELRRTVQSLEIDLDSMRNLKA [KRT18]	3 ± 0.5	3.06 ± 0.51
KPGRKTNQLQYMQNVVVKTLWKHQ [BRD3]	2.25 ± 0.2	2.62 ± 0.21
RMYPFQIHSIALSTFASLIGPFGG [CDS2]	2.79 ± 0.33	2.61 ± 0.5
CTDSVVKYELMRPSNKAPLLVLCE [EHMT1]	2.02 ± 0.26	2.22 ± 0.24
MARGRKMSKPRAVEAAAAAAAVAA [KMT5A]	–	4.4 ± 0.55
KYWCVTATRVAPERLFGSAANVVS [ZBED1]	2.25 ± 0.34	2.38 ± 0.28
KPYKCTLCGENFSHRSNLIRHQRI [ZNF263]	2.74 ± 0.51	3.43 ± 0.39
